Reference: PMC2891831, “Insight into the Mechanisms of Adenovirus Capsid Disassembly from Studies of Defensin Neutralization” (PLoS Pathogens, 2010)
Entries after “also recorded” stand apart in the source; their conditions may differ.

Columns and labels:
[1] = tested on: Ad5.F35 capsid (hexon, penton base, fiber); assay: CryoEM difference map analysis of Ad5.F35+HD5; type: binding, human adenovirus; conditions: 20 µM HD5, 160 µg/ml Ad5.F35, cryoEM difference map, 12 Å resolution
Description: To obtain structural insight into the mechanism of α-defensin-mediated neutralization of HAdV infection, we studied a complex of Ad5.F35 (Ad35F) and HD5 by cryoelectron microscopy (cryoEM). This chimeric virus construct was chosen because of its short fiber and the availability of a cryoEM structure of Ad5.F35 in the absence of defensin for comparison, [31]. […] Ad5.F35 was incubated with a saturating concentration of HD5 (20 µM) then applied to grids and flash frozen for cryoEM. A dataset of 2,611 cryoEM particle images of the Ad5.F35+HD5 complex was collected and processed as performed earlier for Ad5.F35 [31]. The resolution of the icosahedral portion of the Ad5.F35+HD5 reconstruction is estimated as 12 Å by the FSC 0.5 threshold criterion, compared to 6.9 Å for the Ad5.F35 reconstruction. Both cryoEM structures are shown filtered to 12 Å resolution in Figure 4A. The most noticeable difference between the two structures is the presence of more density on top of penton base and around the fiber shaft in the Ad5.F35+HD5 structure. In addition, while the fiber knob is visible in the Ad5.F35 structure, it is only weakly reconstructed in the Ad5.F35+HD5 structure (Figure 4A inset). […]

[2] = tested on: 19cF; assay: Infection assay, 19cF virus chimera; type: cell-based, human adenovirus
Source text: The availability of sensitive (e.g., HAdV-5) and resistant (e.g., HAdV-19c) serotypes provided a means to test this HD5 neutralization model by generating virus chimeras. Initially, virus chimeras were constructed by replacing the sequences for fiber, penton base, and hexon in the HAdV-5 genome with the corresponding sequences from HAdV-19c. Consistent with previous studies, [38], the virus chimera containing the HAdV-19c hexon is not viable; however, constructs containing the HAdV-19c fiber (19cF) or penton base (19cPB) are capable of replicating. […] In contrast, the 19cPB virus has an intermediate phenotype.
Figure 6 Neutralization determinants are located in fiber and penton base. A) Schematic of chimeric viruses. […] B) Each of the chimeric viruses was incubated with 5 µM (grey) or 10 µM (black) HD5 and assessed for infectivity on A549 cells. […] The upper limit for quantification of this assay is 200%.
Prior to use in this assay, each virus stock was titrated on A549 cells. […] In parallel, wells were infected with two-fold serial dilutions of each virus to establish a standard curve for quantification with an upper limit of 200%. […] Total well fluorescence above background was quantified with ImageJ software. For each virus, samples were quantified by nonlinear regression against the standard curve using Prism software (GraphPad Software, Inc., La Jolla, CA).

B1: HD5: human alpha-defensin; synthetic, obtained from Peptides International; three disulfide bonds (PDB 1ZMP) (peptide, UniProt Q01523 20-94, looked up)
Defensin alpha 5: ESLQERADEATTQKQSGEDNQDLAISFAGNGLSALRTSGSQARATCYCRTGRCATRESLSGVCEISGRLYRLCCR
modifications: Defensin-5
HD5 binding regions on capsid [1]: HD5 difference density is also found within the central depression of the hexon trimers; also recorded: multiple binding sites for HD5 on the penton complex (penton base and fiber); also recorded: interacts with the exposed surfaces of the three major capsid proteins: hexon, penton base, and fiber; also recorded: extensive binding of HD5 to the fiber | sensitivity to HD5 neutralization ([2]; 5 µM and 10 µM HD5, A549 cells, at least three independent experiments, upper limit 200%): completely resistant to neutralization | defensin-resistance at higher HD5 concentration ([2]; 20 µM HD5, data not shown): confirmed the defensin-resistance
